Experiments:
[1] = target: T1, TelN protelomerase (bacteriophage N15) (UniProt Q77WP1); experiment: cell_activity; details: SS- integrant at lambda attB, 42 C
T1 sequence: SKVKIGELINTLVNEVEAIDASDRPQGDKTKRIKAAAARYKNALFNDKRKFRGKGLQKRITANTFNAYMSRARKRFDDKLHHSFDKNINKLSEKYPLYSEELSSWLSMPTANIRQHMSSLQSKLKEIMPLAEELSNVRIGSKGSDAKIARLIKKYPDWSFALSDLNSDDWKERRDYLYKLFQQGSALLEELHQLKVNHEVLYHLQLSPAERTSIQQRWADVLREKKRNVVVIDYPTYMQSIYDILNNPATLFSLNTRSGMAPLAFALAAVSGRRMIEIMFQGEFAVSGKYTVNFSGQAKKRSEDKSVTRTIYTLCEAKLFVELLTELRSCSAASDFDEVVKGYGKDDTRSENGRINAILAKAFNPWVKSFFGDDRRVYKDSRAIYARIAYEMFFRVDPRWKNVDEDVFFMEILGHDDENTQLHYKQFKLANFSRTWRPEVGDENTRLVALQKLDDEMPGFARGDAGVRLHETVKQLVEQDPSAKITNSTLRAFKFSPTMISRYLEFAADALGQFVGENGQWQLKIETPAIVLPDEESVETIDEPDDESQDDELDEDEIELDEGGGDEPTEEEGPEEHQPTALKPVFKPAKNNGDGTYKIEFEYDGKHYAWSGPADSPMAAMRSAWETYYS

[2] = target: T2, Tel protelomerase (bacteriophage PY54) (UniProt Q8W5V1); experiment: cell_activity; details: SS- integrant at lambda attB, 42 C; no processing of SS- plasmid
T2 sequence: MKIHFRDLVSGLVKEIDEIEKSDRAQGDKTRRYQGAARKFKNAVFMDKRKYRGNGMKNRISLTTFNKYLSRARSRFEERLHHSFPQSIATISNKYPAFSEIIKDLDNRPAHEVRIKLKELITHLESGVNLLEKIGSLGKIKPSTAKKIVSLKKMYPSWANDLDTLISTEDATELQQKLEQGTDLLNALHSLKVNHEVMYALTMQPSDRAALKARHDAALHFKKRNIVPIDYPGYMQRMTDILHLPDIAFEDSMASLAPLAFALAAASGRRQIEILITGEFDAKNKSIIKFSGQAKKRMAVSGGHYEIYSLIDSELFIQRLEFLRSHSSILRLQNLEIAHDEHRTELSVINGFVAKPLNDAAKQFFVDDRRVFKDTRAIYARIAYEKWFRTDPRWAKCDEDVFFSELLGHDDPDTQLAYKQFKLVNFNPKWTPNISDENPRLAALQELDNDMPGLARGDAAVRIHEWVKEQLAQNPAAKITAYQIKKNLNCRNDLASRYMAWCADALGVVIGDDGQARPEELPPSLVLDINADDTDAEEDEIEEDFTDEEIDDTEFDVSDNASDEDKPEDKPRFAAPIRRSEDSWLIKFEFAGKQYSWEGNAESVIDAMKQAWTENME

SS-minus plasmid (no target site)
activity (fraction viable) [1]: 0.6
activity (fraction viable) [2]: 1

Source: patent USRE49294
